Experimental data from the supplement of paper PMC9732359.
± gives the uncertainty stated by the source.

Experiment: protein stability index of a GFP-peptide fusion (yeast GPS) (PSI 1-4); higher = more stable; sorted into four equal gates, so the index is relative within each strain
Summary of the method: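 The protein stability index combines read frequencies across sorting gates, each weighted by its gate number and then summed. To obtain those frequencies, a pooled yeast library of GFP fusions to tiled 17-residue yeast protein peptides, on a plasmid also expressing Cherry, was grown to mid-log phase in leucine-free medium. The cells were sorted into four equal gates by GFP/Cherry ratio before plasmid amplification by PCR and Illumina sequencing.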

RTLEAITATLVGTVRCE [CSL4]
protein stability index (doa10∆): 1.73 ± 0.12 | protein stability index (pdr5∆): 1.91 ± 0.12 | protein stability index (san1∆): 1.5 ± 0.14 | protein stability index (ubr1∆): 2.47 ± 0.16

VESQFSAGRLYACISSR [RPS8A]
protein stability index (doa10∆): 2.08 ± 0.11 | protein stability index (pdr5∆): 2.65 ± 0.097 | protein stability index (san1∆): 1.99 ± 0.14 | protein stability index (ubr1∆): 2.55 ± 0.14

NEGLVEYIDAEEEESIL [RPB2]
protein stability index (doa10∆): 3.36 ± 0.081 | protein stability index (pdr5∆): 3.46 ± 0.085 | protein stability index (san1∆): 3.24 ± 0.078 | protein stability index (ubr1∆): 3.37 ± 0.087

QPHIFNNPKVKTSKRTK [RPS11A]
protein stability index (doa10∆): 2.95 ± 0.052 | protein stability index (pdr5∆): 2.81 ± 0.061 | protein stability index (san1∆): 2.98 ± 0.091 | protein stability index (ubr1∆): 2.36 ± 0.031

KYNVNISALTQTEIKDI [PRP8]
protein stability index (doa10∆): 2.6 ± 0.082 | protein stability index (pdr5∆): 2.57 ± 0.083 | protein stability index (san1∆): 2.18 ± 0.067 | protein stability index (ubr1∆): 2.75 ± 0.051

CWPKDSRMRLIRQDVNL [PRP8]
protein stability index (doa10∆): 2.52 ± 0.081 | protein stability index (pdr5∆): 2.68 ± 0.09 | protein stability index (san1∆): 2.72 ± 0.067 | protein stability index (ubr1∆): 2.76 ± 0.12

VKSEVDVQVDAEEKREA [ITC1]
protein stability index (doa10∆): 3.22 ± 0.17 | protein stability index (pdr5∆): 2.97 ± 0.21 | protein stability index (san1∆): 3.12 ± 0.23 | protein stability index (ubr1∆): 3.16 ± 0.11

LGVPRIKEIINASKVIS [RPO31]
protein stability index (doa10∆): 3.03 ± 0.1 | protein stability index (pdr5∆): 2.59 ± 0.2 | protein stability index (san1∆): 1.49 ± 0.12 | protein stability index (ubr1∆): 1.71 ± 0.24

TRDETVSLIKKYKLISR [YML103C/NUP188]
protein stability index (doa10∆): 2.48 ± 0.1 | protein stability index (pdr5∆): 2.56 ± 0.13 | protein stability index (san1∆): 2.51 ± 0.11 | protein stability index (ubr1∆): 2.41 ± 0.12

MVGLVDPDKLKPNDLVG [RPT5]
protein stability index (doa10∆): 2.87 ± 0.097 | protein stability index (pdr5∆): 2.94 ± 0.14 | protein stability index (san1∆): 2.94 ± 0.062 | protein stability index (ubr1∆): 2.75 ± 0.069

RLNKLNSNGIAMASLYL [SMD1]
protein stability index (doa10∆): 2.82 ± 0.075 | protein stability index (pdr5∆): 2.95 ± 0.063 | protein stability index (san1∆): 2.78 ± 0.065 | protein stability index (ubr1∆): 2.67 ± 0.069

AGYTTHLMKRIQKGPVR [RPS17A]
protein stability index (doa10∆): 2.2 ± 0.11 | protein stability index (pdr5∆): 2.97 ± 0.15 | protein stability index (san1∆): 1.86 ± 0.16 | protein stability index (ubr1∆): 2.57 ± 0.096

LLAKRLSERKAEKAEIR [RPS6A]
protein stability index (doa10∆): 3.35 ± 0.092 | protein stability index (pdr5∆): 3.54 ± 0.11 | protein stability index (san1∆): 3.18 ± 0.086 | protein stability index (ubr1∆): 3.33 ± 0.084

NLCGDISLEALNFYITN [SIR3]
protein stability index (doa10∆): 2.55 ± 0.064 | protein stability index (pdr5∆): 2.73 ± 0.059 | protein stability index (san1∆): 2.6 ± 0.053 | protein stability index (ubr1∆): 2.74 ± 0.032

DALKVVLRTALVHDGLA [RPS12]
protein stability index (doa10∆): 2.5 ± 0.17 | protein stability index (pdr5∆): 2.51 ± 0.14 | protein stability index (san1∆): 2.72 ± 0.098 | protein stability index (ubr1∆): 3.25 ± 0.1

DLFTHLWNQWLKLNTSL [SRP68]
protein stability index (doa10∆): 1.76 ± 0.048 | protein stability index (pdr5∆): 2.05 ± 0.047 | protein stability index (san1∆): 2.27 ± 0.066 | protein stability index (ubr1∆): 1.83 ± 0.038

ILAMTYSENGKHDSLRY [RPN1]
protein stability index (doa10∆): 3.28 ± 0.23 | protein stability index (san1∆): 2.73 ± 0.2 | protein stability index (ubr1∆): 2.62 ± 0.29

TAVGKAAVVKTSSRQTV [RPT5]
protein stability index (doa10∆): 3.39 ± 0.065 | protein stability index (pdr5∆): 3.23 ± 0.07 | protein stability index (san1∆): 3.28 ± 0.074 | protein stability index (ubr1∆): 3.15 ± 0.052

NVNETMSRSLANGIINV [SMC3]
protein stability index (doa10∆): 2.75 ± 0.074 | protein stability index (pdr5∆): 2.76 ± 0.061 | protein stability index (san1∆): 2.96 ± 0.081 | protein stability index (ubr1∆): 2.73 ± 0.057

QFLEQGLSIHPTQITQY [SRP68]
protein stability index (doa10∆): 2.17 ± 0.058 | protein stability index (pdr5∆): 2.22 ± 0.076 | protein stability index (san1∆): 2.27 ± 0.062 | protein stability index (ubr1∆): 2.17 ± 0.067

DIDDELNELETLIKKKQ [SMC2]
protein stability index (doa10∆): 3.31 ± 0.16 | protein stability index (pdr5∆): 3.11 ± 0.1 | protein stability index (san1∆): 2.99 ± 0.078 | protein stability index (ubr1∆): 3.24 ± 0.078

QPDANKKKRSRTSATRE [ISW2]
protein stability index (doa10∆): 3.46 ± 0.14 | protein stability index (pdr5∆): 3.38 ± 0.079 | protein stability index (san1∆): 3.5 ± 0.057 | protein stability index (ubr1∆): 3.16 ± 0.1

RLECVKCKTRAQLTLKR [RPL42A]
protein stability index (doa10∆): 2.8 ± 0.096 | protein stability index (pdr5∆): 2.46 ± 0.085 | protein stability index (san1∆): 2.52 ± 0.14 | protein stability index (ubr1∆): 2.54 ± 0.056

IDVDMDASPAPSNESCS [SRB5]
protein stability index (doa10∆): 2.6 ± 0.053 | protein stability index (pdr5∆): 2.58 ± 0.05 | protein stability index (san1∆): 2.66 ± 0.057 | protein stability index (ubr1∆): 2.32 ± 0.049

KPYKQVKQIAPAELEGL [FAS2]
protein stability index (doa10∆): 2.36 ± 0.061 | protein stability index (pdr5∆): 2.14 ± 0.055 | protein stability index (san1∆): 2.47 ± 0.083 | protein stability index (ubr1∆): 1.9 ± 0.053

KIEGVATPQEAQFYLGK [RPL33B]
protein stability index (doa10∆): 2.87 ± 0.083 | protein stability index (pdr5∆): 3.03 ± 0.098 | protein stability index (san1∆): 2.91 ± 0.091 | protein stability index (ubr1∆): 3 ± 0.072

TTPKKIKHKHKKVKLAV [RPS31]
protein stability index (doa10∆): 2.19 ± 0.052 | protein stability index (pdr5∆): 1.99 ± 0.1 | protein stability index (san1∆): 1.34 ± 0.2 | protein stability index (ubr1∆): 1.91 ± 0.059

FTMMTSEPLTLKVLSEH [PCI8]
protein stability index (doa10∆): 1.73 ± 0.056 | protein stability index (pdr5∆): 1.96 ± 0.049 | protein stability index (san1∆): 1.94 ± 0.095 | protein stability index (ubr1∆): 1.54 ± 0.045

GLCGAGTNNARLAQLLR [RPN1]
protein stability index (doa10∆): 2.44 ± 0.068 | protein stability index (pdr5∆): 1.79 ± 0.047 | protein stability index (san1∆): 1.4 ± 0.13 | protein stability index (ubr1∆): 1.16 ± 0.042

LLTVEEGQLKPGDGSSY [RPC25]
protein stability index (doa10∆): 3.43 ± 0.15 | protein stability index (pdr5∆): 3.23 ± 0.24 | protein stability index (san1∆): 2.83 ± 0.18 | protein stability index (ubr1∆): 3.27 ± 0.14

RASDLRMTIRTRGRSAT [RRP43]
protein stability index (doa10∆): 2.93 ± 0.1 | protein stability index (pdr5∆): 2.36 ± 0.093 | protein stability index (san1∆): 2.22 ± 0.17 | protein stability index (ubr1∆): 2.33 ± 0.11

QNIILRSTMMKFLKIAS [RPN3]
protein stability index (doa10∆): 2.15 ± 0.072 | protein stability index (pdr5∆): 2.42 ± 0.067 | protein stability index (san1∆): 2.86 ± 0.077 | protein stability index (ubr1∆): 3.03 ± 0.048

FGAKSDENKAGATSKPA [YJL041W/NSP1]
protein stability index (doa10∆): 3.25 ± 0.11 | protein stability index (pdr5∆): 3.23 ± 0.1 | protein stability index (san1∆): 3.44 ± 0.065 | protein stability index (ubr1∆): 3.25 ± 0.086

NVAKNMKTPSLTVYLEP [RPO21]
protein stability index (doa10∆): 3.07 ± 0.1 | protein stability index (pdr5∆): 2.86 ± 0.085 | protein stability index (san1∆): 2.94 ± 0.056 | protein stability index (ubr1∆): 3 ± 0.1

YDNIDIQRGRILPTDGS [RPB7]
protein stability index (doa10∆): 3.05 ± 0.28 | protein stability index (pdr5∆): 3.06 ± 0.18 | protein stability index (ubr1∆): 2.94 ± 0.24

KDAEYLRNYLTPNVREE [PUP1]
protein stability index (doa10∆): 3.09 ± 0.057 | protein stability index (pdr5∆): 3.01 ± 0.075 | protein stability index (san1∆): 3.14 ± 0.056 | protein stability index (ubr1∆): 3.16 ± 0.081

IKIVYALTTIKGVGRRY [RPS18A]
protein stability index (doa10∆): 1.87 ± 0.12 | protein stability index (pdr5∆): 1.95 ± 0.078 | protein stability index (san1∆): 2.06 ± 0.17 | protein stability index (ubr1∆): 1.61 ± 0.075

SLDNKTLDDLVTKWTNQ [YJL041W/NSP1]
protein stability index (doa10∆): 3.08 ± 0.056 | protein stability index (pdr5∆): 3.07 ± 0.069 | protein stability index (san1∆): 3.05 ± 0.062 | protein stability index (ubr1∆): 3.17 ± 0.043

NNDQKRQQAYKTAQTLD [YJL041W/NSP1]
protein stability index (doa10∆): 3.14 ± 0.071 | protein stability index (pdr5∆): 3.17 ± 0.063 | protein stability index (san1∆): 3.33 ± 0.053 | protein stability index (ubr1∆): 3.23 ± 0.047

EIDDFNDIDDLDMELAE [SEC65]
protein stability index (doa10∆): 2.68 ± 0.1 | protein stability index (pdr5∆): 3.11 ± 0.11 | protein stability index (san1∆): 2.89 ± 0.089 | protein stability index (ubr1∆): 3.22 ± 0.12

LRNKLIESNKLAGVLYE [RRP6]
protein stability index (doa10∆): 2.72 ± 0.16 | protein stability index (pdr5∆): 3.04 ± 0.21 | protein stability index (san1∆): 2.79 ± 0.28 | protein stability index (ubr1∆): 2.73 ± 0.18

SIVGVDLSSAASASGAA [FAS2]
protein stability index (doa10∆): 1.77 ± 0.13 | protein stability index (pdr5∆): 1.53 ± 0.11 | protein stability index (ubr1∆): 1.62 ± 0.18

RKLFPNWIKPSDSEIPP [PRP8]
protein stability index (doa10∆): 3.42 ± 0.16 | protein stability index (pdr5∆): 2.89 ± 0.11 | protein stability index (san1∆): 2.91 ± 0.069 | protein stability index (ubr1∆): 2.97 ± 0.053

QQIPLLCYMAPMTVKLV [POP3]
protein stability index (doa10∆): 1.63 ± 0.052 | protein stability index (pdr5∆): 1.57 ± 0.047 | protein stability index (san1∆): 1.78 ± 0.072 | protein stability index (ubr1∆): 1.53 ± 0.057

DPVLDWRKSDRELTKNI [SIR4]
protein stability index (doa10∆): 2.89 ± 0.096 | protein stability index (pdr5∆): 2.2 ± 0.083 | protein stability index (san1∆): 2.52 ± 0.16 | protein stability index (ubr1∆): 2.26 ± 0.08

AVQNESVSSPIELNFDA [QCR2]
protein stability index (doa10∆): 2.95 ± 0.059 | protein stability index (pdr5∆): 2.95 ± 0.061 | protein stability index (san1∆): 2.86 ± 0.065 | protein stability index (ubr1∆): 3.06 ± 0.042

DDELMNWRRLSGRNIHL [SSN2]
protein stability index (doa10∆): 3 ± 0.088 | protein stability index (pdr5∆): 2.91 ± 0.074 | protein stability index (san1∆): 3.01 ± 0.087 | protein stability index (ubr1∆): 3.19 ± 0.09

QKRNAHGYFLQDKEKID [ITC1]
protein stability index (doa10∆): 3.32 ± 0.098 | protein stability index (pdr5∆): 3.38 ± 0.071 | protein stability index (san1∆): 3.28 ± 0.048 | protein stability index (ubr1∆): 3.42 ± 0.056

DDTKETVYISSIALLKM [RPN11]
protein stability index (doa10∆): 3.09 ± 0.087 | protein stability index (pdr5∆): 2.77 ± 0.084 | protein stability index (san1∆): 2.71 ± 0.048 | protein stability index (ubr1∆): 2.93 ± 0.055

MDFLNSMENTPKVPVSA [GAL11]
protein stability index (doa10∆): 2.42 ± 0.094 | protein stability index (pdr5∆): 2.45 ± 0.11 | protein stability index (san1∆): 2.1 ± 0.13 | protein stability index (ubr1∆): 2.37 ± 0.065

VPNSIGNIFSNIGTPSF [SNF5]
protein stability index (doa10∆): 2.8 ± 0.11 | protein stability index (pdr5∆): 2.6 ± 0.1 | protein stability index (san1∆): 1.33 ± 0.15 | protein stability index (ubr1∆): 2.79 ± 0.061

PQNEKPPAYALLGSCQT [RPC25]
protein stability index (doa10∆): 2.83 ± 0.26 | protein stability index (pdr5∆): 2.76 ± 0.17 | protein stability index (ubr1∆): 2.45 ± 0.13

ERDEQKRAEKKAKERLQ [SNF2]
protein stability index (doa10∆): 3.29 ± 0.12 | protein stability index (pdr5∆): 3.45 ± 0.16 | protein stability index (san1∆): 2.98 ± 0.13 | protein stability index (ubr1∆): 3.4 ± 0.12
